Source: patent US20140329320A1 (OBSCHESTVO S OGRANICHENNOI OTVETSTVENNOSTYU TEKHNOPHARMA, published 2014)

B1: aCt2 nanoantibody (VHH)
VHH: QVQLVESGGGSVQAGGSLRLHCASSGYVEARILMGWFRQAPGKEREGVAAIYIGDGTTDYGDSVKGRFTVSQDGAKNAIYLHMYDVKPEDAATYYCAAGIMPWYRTWSGRLNVGDFDSWGQGTQVTVSS
notes: also called single domain nanoantibody aCt2
B2: aCt1 nanoantibody (VHH)
VHH: QVQLVESGGGSVQAGGSLRLSCTTSHYVASNSCMAWFRQAPGKKREGVASISRRADITFYADSVKERFVISRDNSERTLYLQMNSLKPEDTAMYYCAADLSYCGLTEEGYNHWGQGTQVTVSS
notes: also called single domain nanoantibody aCt1

Biological target: T1, chicken ovalbumin protein (chicken, UniProt P01012 2-386)
T1 construct: Immobilized in wells as negative control of the MIF assay; also called nonspecific protein; negative control
T1 sequence: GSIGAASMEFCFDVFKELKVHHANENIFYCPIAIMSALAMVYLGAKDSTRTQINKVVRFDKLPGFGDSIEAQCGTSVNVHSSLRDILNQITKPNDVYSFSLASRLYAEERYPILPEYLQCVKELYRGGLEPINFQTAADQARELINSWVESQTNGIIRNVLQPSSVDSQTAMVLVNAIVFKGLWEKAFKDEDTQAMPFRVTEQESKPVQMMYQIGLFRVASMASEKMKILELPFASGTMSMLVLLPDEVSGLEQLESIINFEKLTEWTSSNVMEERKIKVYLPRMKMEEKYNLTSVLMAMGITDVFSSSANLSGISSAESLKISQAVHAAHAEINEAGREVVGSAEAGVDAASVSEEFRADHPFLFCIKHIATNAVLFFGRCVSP
Test: microimmunofluorescence (MIF) on immobilized antigen, anti-HA and FITC secondary detection

| Binder | binding result |
| --- | --- |
| B1 | no binding (tested: 10 µ/ml) |
| B2 | no binding (tested: 10 µ/ml) |
